Literature values, collected in PMC2874015.
pKd: −log10 of the molar value.

Key:
[1] = molecular target: GCN4 leucine zipper (Saccharomyces cerevisiae) (UniProt P03069)
[2] = molecular target: c-Jun leucine zipper (Homo sapiens) (UniProt P05412)

Sequence of c-Jun leucine zipper (P05412 277-311): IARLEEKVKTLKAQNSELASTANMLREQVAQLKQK
Sequence of GCN4 leucine zipper (P03069 250-277): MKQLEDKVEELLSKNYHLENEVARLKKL

| Substance | pKd [1] | pKd [2] |
| --- | --- | --- |
| GCN4 leucine zipper (from UniProt P03069) | 8.10 | – |
| c-Jun leucine zipper (from UniProt P05412) | – | 3.35 |
